Columns and labels:
Test in all cases: SPR Biacore, antigen captured, 37C, pH 7.4, HBS-EP
[1] = biological target: T1, mANGPTL3(17-455)-His (Mus musculus, UniProt Q9R182 17-455)
T1 construct: Bought protein (R&D Systems); also called full-length mature ANGPTL3 from Mus musculus with a C-terminal decahistidine tag
T1 sequence: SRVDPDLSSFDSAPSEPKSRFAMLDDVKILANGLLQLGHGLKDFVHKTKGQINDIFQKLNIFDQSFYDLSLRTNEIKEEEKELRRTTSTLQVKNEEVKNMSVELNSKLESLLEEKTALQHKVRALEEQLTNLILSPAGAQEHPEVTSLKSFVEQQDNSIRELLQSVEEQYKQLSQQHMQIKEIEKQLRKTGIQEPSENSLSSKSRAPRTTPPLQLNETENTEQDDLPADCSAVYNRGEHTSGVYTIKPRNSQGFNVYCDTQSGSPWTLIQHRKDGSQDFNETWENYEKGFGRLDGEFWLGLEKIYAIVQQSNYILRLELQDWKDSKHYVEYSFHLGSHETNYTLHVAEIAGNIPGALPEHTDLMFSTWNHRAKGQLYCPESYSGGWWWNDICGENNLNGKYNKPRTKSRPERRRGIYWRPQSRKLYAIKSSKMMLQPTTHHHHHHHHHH
Method: (§1) All kinetic binding experiments were performed at 25° C. or 37° C. on a BIACORE™ T200 label-free molecular interaction instrument (GE Healthcare) using a CM5 sensor chip. Briefly, an antigen capture surface was generated by covalently coupling either an anti-mouse IgG-specific antibody (anti-mFc; GE Healthcare; catalog #BR-1008-38) or an anti-pentahistidine-specific antibody (Qiagen; catalog #34660) to the surface of a CM5 sensor chip using a standard amine coupling method.

[2] = biological target: T2, MfANGPTL3(17-170)-mmH (Macaca fascicularis)
T2 construct: also called N-terminal coiled-coil domain of ANGPTL3 from Macaca fascicularis with myc-myc-hexahistidine tag; Monkey ANGPTL3 (17-170)-mmH
T2 chain: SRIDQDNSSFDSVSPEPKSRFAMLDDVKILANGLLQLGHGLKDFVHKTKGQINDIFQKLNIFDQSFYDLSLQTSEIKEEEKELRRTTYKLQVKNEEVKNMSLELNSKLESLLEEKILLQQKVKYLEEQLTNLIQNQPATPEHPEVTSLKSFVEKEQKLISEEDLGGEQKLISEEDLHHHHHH
Method: as §1

[3] = biological target: T3, rANGPTL3(17-240)-mmH (Rattus norvegicus)
T3 construct: also called N-terminal coiled-coil domain of ANGPTL3 from Rattus norvegicus with myc-myc-hexahistidine tag
T3 chain: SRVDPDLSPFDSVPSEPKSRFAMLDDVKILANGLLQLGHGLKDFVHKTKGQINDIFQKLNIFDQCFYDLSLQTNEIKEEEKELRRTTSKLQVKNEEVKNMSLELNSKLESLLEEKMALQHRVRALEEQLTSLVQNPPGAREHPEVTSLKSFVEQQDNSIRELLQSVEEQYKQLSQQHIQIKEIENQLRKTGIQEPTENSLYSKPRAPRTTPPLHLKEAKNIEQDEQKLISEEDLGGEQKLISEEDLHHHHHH
Method: as §1

[4] = biological target: T4, hANGPTL3(17-170)-His (human, UniProt Q9Y5C1 17-170)
T4 construct: also called N-terminal coiled-coil domain of hANGPTL3 with a C-terminal hexahistidine tag; Human ANGPTL3 (17-170)-His
T4 sequence: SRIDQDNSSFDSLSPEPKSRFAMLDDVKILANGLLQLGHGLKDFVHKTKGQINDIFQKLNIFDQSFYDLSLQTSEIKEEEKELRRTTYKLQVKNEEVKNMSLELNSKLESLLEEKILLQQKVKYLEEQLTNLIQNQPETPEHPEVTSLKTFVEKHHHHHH
Method: as §1

[5] = biological target: T5, mANGPTL3(17-240)-His (Mus musculus, UniProt Q9R182 17-240)
T5 construct: also called N-terminal coiled-coil domain of ANGPTL3 from Mus musculus with a hexahistidine tag; Mouse ANGPTL3 (17-240)-His
T5 sequence: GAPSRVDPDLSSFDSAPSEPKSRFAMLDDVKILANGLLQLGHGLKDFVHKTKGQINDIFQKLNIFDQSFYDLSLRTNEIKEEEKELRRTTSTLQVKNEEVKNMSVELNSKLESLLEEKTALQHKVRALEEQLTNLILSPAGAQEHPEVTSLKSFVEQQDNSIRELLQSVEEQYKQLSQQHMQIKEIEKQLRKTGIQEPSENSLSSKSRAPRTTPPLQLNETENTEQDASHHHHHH
Method: as §1

[6] = biological target: T6, hANGPTL3(17-460)-His (human, UniProt Q9Y5C1 17-460)
T6 construct: Bought protein (R&D Systems); also called full-length mature human ANGPTL3 with a C-terminal decahistidine tag; Human ANGPTL3 (17-460)-His
T6 sequence: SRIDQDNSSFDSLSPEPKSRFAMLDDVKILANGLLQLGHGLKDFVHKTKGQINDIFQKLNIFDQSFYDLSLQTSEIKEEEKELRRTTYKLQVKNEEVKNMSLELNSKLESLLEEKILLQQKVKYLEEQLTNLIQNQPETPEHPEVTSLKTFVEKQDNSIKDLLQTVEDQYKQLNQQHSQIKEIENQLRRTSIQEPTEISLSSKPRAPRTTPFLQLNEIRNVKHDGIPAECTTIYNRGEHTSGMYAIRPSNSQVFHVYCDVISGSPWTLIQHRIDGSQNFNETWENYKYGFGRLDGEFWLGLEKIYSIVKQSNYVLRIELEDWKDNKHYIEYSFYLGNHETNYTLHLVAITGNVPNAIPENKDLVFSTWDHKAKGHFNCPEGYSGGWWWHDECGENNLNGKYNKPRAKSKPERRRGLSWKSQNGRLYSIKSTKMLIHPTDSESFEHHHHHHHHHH
Method: as §1

B1: H4H1276S (antibody, IgG4, V domains shown)
VH: EVQLVESGGGVIQPGGSLRLSCAASGFTFDDYAMNWVRQGPGKGLEWVSAISGDGGSTYYADSVKGRFTISRDNSKNSLYLQMNSLRAEDTAFFYCAKDLRNTIFGVVIPDAFDIWGQGTMVTVSS
VL: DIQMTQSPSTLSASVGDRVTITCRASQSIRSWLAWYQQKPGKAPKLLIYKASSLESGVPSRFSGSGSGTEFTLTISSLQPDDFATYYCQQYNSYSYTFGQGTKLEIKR
B1 showed a Kd [1] of 0.408 nM, a koff [1] of 0.000791 s⁻¹ and a kon [1] of 1.94e+06 M⁻¹ s⁻¹. For the same binder, the t1/2 [1] was 14.6 min, the Kd [2] was 0.625 nM and the koff [2] was 0.00117 s⁻¹. The kon [2] was 1.87e+06 M⁻¹ s⁻¹, the t1/2 [2] was 9.9 min and the Kd [3] was 0.94 nM. For the same binder, the koff [3] was 0.00193 s⁻¹, the kon [3] was 2.05e+06 M⁻¹ s⁻¹ and the t1/2 [3] was 6 min. It also gave a Kd [4] of 1.52 nM, a koff [4] of 0.00241 s⁻¹ and a kon [4] of 1.59e+06 M⁻¹ s⁻¹. For the same binder, the t1/2 [4] was 4.8 min, the Kd [5] was 1.18 nM and the koff [5] was 0.000964 s⁻¹. For the same binder, the kon [5] was 819000 M⁻¹ s⁻¹, the t1/2 [5] was 12 min and the Kd [6] was 1.29 nM. For the same binder, the koff [6] was 0.000812 s⁻¹, the kon [6] was 632000 M⁻¹ s⁻¹ and the t1/2 [6] was 14.2 min.

Source: patent publication US20150197564A1 (Regeneron, published 2015)
